In assay [1] the target is recombinant human sPLA2-X (human group X secreted phospholipase A2), mature enzyme (human) (UniProt O15496). The assay is described as follows: indirect ELISA on wells coated with 50 ng recombinant human sPLA2-X; one-site saturation fit, relative Kd. (In general: In an ELISA, binding on a coated surface is turned into a signal by an enzyme label.)
In assay [2] the target is T1, recombinant human sPLA2-X (human group X secreted phospholipase A2), mature enzyme (human, UniProt O15496 43-165).
T1 construct: also called hGX
T1 sequence: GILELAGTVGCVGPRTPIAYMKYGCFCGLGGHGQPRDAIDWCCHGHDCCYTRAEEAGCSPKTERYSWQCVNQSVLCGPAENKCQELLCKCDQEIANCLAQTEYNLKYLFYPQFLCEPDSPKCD
The assay is described as follows: indirect ELISA on coated recombinant human sPLA2-X.

In assay [3] the target is T1, recombinant human sPLA2-X (human group …). The assay is described as follows: indirect ELISA on wells coated with 50 ng recombinant human sPLA2-X; one-site saturation fit, relative Kd.
Assay [4] shares this target. The assay is described as follows: indirect ELISA on coated recombinant human sPLA2-X, anti-mouse IgG-HRP detection; one-site saturation fit.
For assay [5] the target is unchanged. The assay is described as follows: indirect ELISA on coated recombinant human sPLA2-X, streptavidin-HRP detection; one-site saturation fit.

Usually Kd stands for the constant that tells how readily two partners part at equilibrium.

“commercially available monoclonal antibody H9 (ref. SC-365730, Santa Cruz Biotechnology)”: the Kd in assay [1] was 8.94 nM.

B1: biotinylated monoclonal antibody #9C12 (antibody, V domains shown)
VH: QIQLVQSGPELKKPGETVKISCKASGYTFTNYGMNWVKQAPGKGLKWMGWIKTNTGEPTYAEEFKGRFAFSLETSASTAYLQINNLKNEDTATYFCARGNYYRPRRYFDYWGQGTTLTVSS
VL: DIQMSQSPASLSASVGETVTMTCRASENLYSNLAWYQQKQGKSPQLLVYAATNLADGVPSRFSGSGSGTQFSLKINSLQPEDFGSYYCQHFYVTPYTFGGGTKLEIKR
modifications: biotinylated (Pierce kit ref. 21435); sites not stated
notes: also called #9C12-Biot
B1: the binding result in assay [2] is reported as “binds”.

B2: monoclonal anti-sPLA2-X antibody #9C12 (antibody, V domains shown)
VH: QIQLVQSGPELKKPGETVKISCKASGYTFTNYGMNWVKQAPGKGLKWMGWIKTNTGEPTYAEEFKGRFAFSLETSASTAYLQINNLKNEDTATYFCARGNYYRPRRYFDYWGQGTTLTVSS
VL: DIQMSQSPASLSASVGETVTMTCRASENLYSNLAWYQQKQGKSPQLLVYAATNLADGVPSRFSGSGSGTQFSLKINSLQPEDFGSYYCQHFYVTPYTFGGGTKLEIKR
notes: Mouse monoclonal antibody from a hybridoma, purified by protein A; also called 9C12 antibody; hybridoma CNCM I-4524
Consider B2, for which the Kd in assay [3] is 0.181 nM.

B3: monoclonal anti-sPLA2-X antibody #8D9 (antibody, V domains shown)
VH: EVKLVESGGGLVKPGGSLKLSCAASGFTFSNYPMSWVRQTPAKRLEWVATISSGGDDTYYPDSVKGRFTISRDNARNTLYLQMSCLRSEDTALYYCARPQLGPWGQGTTLTVSS
VL: DIVMTQAAPSVPVTPGDSVSISCRSSKSLLHSNGITYLYWFLQRPGQSPQRLIYYMSNLASGVPDRFSGRGSGTDFTLRISRVEAEDVGVYYCMQSLEYPLTFGAGTKLELKR
notes: Mouse monoclonal antibody from a hybridoma, purified by protein A; also called 8D9 antibody; hybridoma CNCM I-4523
Consider B3, for which the dissociation constant Kd in assay [3] was determined as 0.327 nM; in assay [4], 0.246 nM.

B4: biotinylated monoclonal antibody #8D9 (antibody, V domains shown)
VH: EVKLVESGGGLVKPGGSLKLSCAASGFTFSNYPMSWVRQTPAKRLEWVATISSGGDDTYYPDSVKGRFTISRDNARNTLYLQMSCLRSEDTALYYCARPQLGPWGQGTTLTVSS
VL: DIVMTQAAPSVPVTPGDSVSISCRSSKSLLHSNGITYLYWFLQRPGQSPQRLIYYMSNLASGVPDRFSGRGSGTDFTLRISRVEAEDVGVYYCMQSLEYPLTFGAGTKLELKR
modifications: biotinylated (Pierce kit ref. 21435); sites not stated
notes: also called #8D9-Biot; 8D9-biot
Regarding B4, the Kd in assay [5] is 0.353 nM.

(Values after patent US20140370030A1 (CENTRE NATIONAL DE LA RECHERCHE SCIENTIFIQUE CNRS, published 2014).)
